Among the data in publication PMC6505963 are binding signal (% loss of binding vs wild type) values, retold here.

For the data set, the target named is GST-BLM RQC loopΔ10 (human) (UniProt P54132). As to the kind of experiment: EMSA. Particulars: 5 uM protein, FP: 10 mM Tris-HCl pH 7.5, 25 mM NaCl, 1 mM DTT, 100 pM DNA, 25 C, EMSA: 10 mM Tris-HCl pH 8.0, 2 mM DTT, 1 mM EDTA, 20% glycerol, 0.2 uM DNA, 4 C, 30 min. Background: In EMSA bound probe runs differently from free probe, usually more slowly.
GST-BLM RQC loopΔ10 (human), sequence (P54132 1068-1209, stated change not applied): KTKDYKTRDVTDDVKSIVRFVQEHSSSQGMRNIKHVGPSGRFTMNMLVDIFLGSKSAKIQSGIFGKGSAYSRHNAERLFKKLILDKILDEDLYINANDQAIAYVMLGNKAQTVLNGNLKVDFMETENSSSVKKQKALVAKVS

On to “CTAGAACAGCATGTCCTAGCAAGCCAGAATTC / GAATTCTGGCTTGCTAGGACATCTTTGCCCAC / GTGGGCAAAGATGTCCTAGCAATGTAATCGTC / GACGATTACATTGCTAGGACATGCTGTTCTAG [Holliday junction (HJ)]”, for which the binding signal (% loss of binding vs wild type) worked out at 50.
